Laboratory results as given in US20200002431A1 (Seagen, published 2020).

B1: hSG16.17 vH2 vK2 (antibody, V domains shown)
VH: QVQLVQSGAEVKKPGASVKLSCKASGYTFTDYYMHWVRQAPGQGLEWIGRINPNSGYTNYAQKFQGRVTMTADKSINTAYVELSRLRSDDTAVYFCTRYMWERVTGFFDFWGQGTMVTVSS
VL: DIQMTQSPSSVSASVGDRVTITCLASEDISDDLAWYQQKPGKAPKVLVYTTSSLQSGVPSRFSGSGSGTDFTLTISSLQPEDFATYFCQQTYKFPPTFGGGTKVEIKR
notes: also called hSG16.17 5
B2: hSG16.17 vH1 vK3 (antibody, V domains shown)
VH: QVQLVQSRAEVKKPGASVKLSCKASGYTFTDYYIHWVRQAPGQGLEWIGYINPNSGYTKYNENFKTRATMTADKSINTAYVELSRLRSDDTAVYFCTRYMWERVTGFFDFWGQGTMVTVSS
VL: DIQMTQSPSSVSASVGDRVTITCRASEDISDDLAWYQQKPGKAPKVLVYTTSSLQSGVPSRFSGSGSGTDFTLTISSLQPEDFATYFCQQTYKFPPTFGGGTKVEIKR
notes: also called hSG16.17 2
B3: hSG16.17 vH5 vK4 (antibody, V domains shown)
VH: QVQLVQSGAEVKKPGASVKVSCKASGYTFTDYYIHWVRQAPGQGLEWIGYINPNSGYTKYNENFKTRATMTADKSTNTAYVELSSLRSEDTAVYFCTRYMWERVTGFFDFWGQGTMVTVSS
VL: DIQMTQSPSSVSASVGDRVTITCLASEDISDDLAWYQQKPGKAPKVLVYTTSRLQSGVPSRFSGSGSGTDFTLTISSMQPEDFADYFCQQTYKFPPTFGGGTKVEIKR
notes: also called hSG16.17 19
B4: hSG16.17 vH6 vK5 (antibody, V domains shown)
VH: QVQLVQSRAEVKKPGASVKLSCKASGYTFTDYYMHWVRQAPGQGLEWIGIINPNSGYTSYAQKFQGRVTMTADKSTNTAYVELSSLRSEDTAVYFCTRYMWERVTGFFDFWGQGTMVTVSS
VL: DIQMTQSPSSVSASVGDRVTITCRASEDISDDLAWYQQKSGKAPKVLVYTTSSLQSGVPSRFSGSGSGTDFTLTISSLQPEDFATYFCQQTYKFPPTFGGGTKVEIKR
notes: also called hSG16.17 24
B5: hSG16.17 vH1 vK5 (antibody, V domains shown)
VH: QVQLVQSRAEVKKPGASVKLSCKASGYTFTDYYIHWVRQAPGQGLEWIGYINPNSGYTKYNENFKTRATMTADKSINTAYVELSRLRSDDTAVYFCTRYMWERVTGFFDFWGQGTMVTVSS
VL: DIQMTQSPSSVSASVGDRVTITCRASEDISDDLAWYQQKSGKAPKVLVYTTSSLQSGVPSRFSGSGSGTDFTLTISSLQPEDFATYFCQQTYKFPPTFGGGTKVEIKR
notes: also called hSG16.17 4
B6: hSG16.17 vH5 vK2 (antibody, V domains shown)
VH: QVQLVQSGAEVKKPGASVKVSCKASGYTFTDYYIHWVRQAPGQGLEWIGYINPNSGYTKYNENFKTRATMTADKSTNTAYVELSSLRSEDTAVYFCTRYMWERVTGFFDFWGQGTMVTVSS
VL: DIQMTQSPSSVSASVGDRVTITCLASEDISDDLAWYQQKPGKAPKVLVYTTSSLQSGVPSRFSGSGSGTDFTLTISSLQPEDFATYFCQQTYKFPPTFGGGTKVEIKR
notes: also called hSG16.17 17
B7: hSG16.17 vH6 vK4 (antibody, V domains shown)
VH: QVQLVQSRAEVKKPGASVKLSCKASGYTFTDYYMHWVRQAPGQGLEWIGIINPNSGYTSYAQKFQGRVTMTADKSTNTAYVELSSLRSEDTAVYFCTRYMWERVTGFFDFWGQGTMVTVSS
VL: DIQMTQSPSSVSASVGDRVTITCLASEDISDDLAWYQQKPGKAPKVLVYTTSRLQSGVPSRFSGSGSGTDFTLTISSMQPEDFADYFCQQTYKFPPTFGGGTKVEIKR
notes: also called hSG16.17 23
B8: hSG16.17 vH1 vK4 (antibody, V domains shown)
VH: QVQLVQSRAEVKKPGASVKLSCKASGYTFTDYYIHWVRQAPGQGLEWIGYINPNSGYTKYNENFKTRATMTADKSINTAYVELSRLRSDDTAVYFCTRYMWERVTGFFDFWGQGTMVTVSS
VL: DIQMTQSPSSVSASVGDRVTITCLASEDISDDLAWYQQKPGKAPKVLVYTTSRLQSGVPSRFSGSGSGTDFTLTISSMQPEDFADYFCQQTYKFPPTFGGGTKVEIKR
notes: also called hSG16.17 3
B9: hSG16.17 vH3 vK4 (antibody, V domains shown)
VH: QVQLVQSGAEVKKPGASVKLSCKASGYTFTDYYIHWVRQAPGQGLEWIGYINPNSGYTNYAQKFQGRATMTADKSINTAYVELSRLRSDDTAVYFCTRYMWERVTGFFDFWGQGTMVTVSS
VL: DIQMTQSPSSVSASVGDRVTITCLASEDISDDLAWYQQKPGKAPKVLVYTTSRLQSGVPSRFSGSGSGTDFTLTISSMQPEDFADYFCQQTYKFPPTFGGGTKVEIKR
notes: also called hSG16.17 11
B10: hSG16.17 vH6 vK2 (antibody, V domains shown)
VH: QVQLVQSRAEVKKPGASVKLSCKASGYTFTDYYMHWVRQAPGQGLEWIGIINPNSGYTSYAQKFQGRVTMTADKSTNTAYVELSSLRSEDTAVYFCTRYMWERVTGFFDFWGQGTMVTVSS
VL: DIQMTQSPSSVSASVGDRVTITCLASEDISDDLAWYQQKPGKAPKVLVYTTSSLQSGVPSRFSGSGSGTDFTLTISSLQPEDFATYFCQQTYKFPPTFGGGTKVEIKR
notes: also called hSG16.17 21
B11: hSG16.17 vH6 vK3 (antibody, V domains shown)
VH: QVQLVQSRAEVKKPGASVKLSCKASGYTFTDYYMHWVRQAPGQGLEWIGIINPNSGYTSYAQKFQGRVTMTADKSTNTAYVELSSLRSEDTAVYFCTRYMWERVTGFFDFWGQGTMVTVSS
VL: DIQMTQSPSSVSASVGDRVTITCRASEDISDDLAWYQQKPGKAPKVLVYTTSSLQSGVPSRFSGSGSGTDFTLTISSLQPEDFATYFCQQTYKFPPTFGGGTKVEIKR
notes: also called hSG16.17 22
B12: hSG16.17 vH5 vK5 (antibody, V domains shown)
VH: QVQLVQSGAEVKKPGASVKVSCKASGYTFTDYYIHWVRQAPGQGLEWIGYINPNSGYTKYNENFKTRATMTADKSTNTAYVELSSLRSEDTAVYFCTRYMWERVTGFFDFWGQGTMVTVSS
VL: DIQMTQSPSSVSASVGDRVTITCRASEDISDDLAWYQQKSGKAPKVLVYTTSSLQSGVPSRFSGSGSGTDFTLTISSLQPEDFATYFCQQTYKFPPTFGGGTKVEIKR
notes: also called hSG16.17 20
B13: hSG16.17 vH5 vK3 (antibody, V domains shown)
VH: QVQLVQSGAEVKKPGASVKVSCKASGYTFTDYYIHWVRQAPGQGLEWIGYINPNSGYTKYNENFKTRATMTADKSTNTAYVELSSLRSEDTAVYFCTRYMWERVTGFFDFWGQGTMVTVSS
VL: DIQMTQSPSSVSASVGDRVTITCRASEDISDDLAWYQQKPGKAPKVLVYTTSSLQSGVPSRFSGSGSGTDFTLTISSLQPEDFATYFCQQTYKFPPTFGGGTKVEIKR
notes: also called hSG16.17 18
B14: hSG16.17 vH3 vK3 (antibody, V domains shown)
VH: QVQLVQSGAEVKKPGASVKLSCKASGYTFTDYYIHWVRQAPGQGLEWIGYINPNSGYTNYAQKFQGRATMTADKSINTAYVELSRLRSDDTAVYFCTRYMWERVTGFFDFWGQGTMVTVSS
VL: DIQMTQSPSSVSASVGDRVTITCRASEDISDDLAWYQQKPGKAPKVLVYTTSSLQSGVPSRFSGSGSGTDFTLTISSLQPEDFATYFCQQTYKFPPTFGGGTKVEIKR
notes: also called hSG16.17 10
B15: hSG16.17 vH3 vK5 (antibody, V domains shown)
VH: QVQLVQSGAEVKKPGASVKLSCKASGYTFTDYYIHWVRQAPGQGLEWIGYINPNSGYTNYAQKFQGRATMTADKSINTAYVELSRLRSDDTAVYFCTRYMWERVTGFFDFWGQGTMVTVSS
VL: DIQMTQSPSSVSASVGDRVTITCRASEDISDDLAWYQQKSGKAPKVLVYTTSSLQSGVPSRFSGSGSGTDFTLTISSLQPEDFATYFCQQTYKFPPTFGGGTKVEIKR
notes: also called hSG16.17 12

Each binder was assayed against T1, human BCMA (B-cell maturation antigen, CD269) expressed on cells (human, UniProt Q02223 1-184) (assay: cell binding, U266 cells, full range of concentration points).
T1 construct: Endogenous on myeloma lines (NCI-H929, U266, JJN3) or a full-length clone transfected into HEK 293 cells; also called hBCMA; BCMA expressed on NCI-H929 cells
T1 sequence: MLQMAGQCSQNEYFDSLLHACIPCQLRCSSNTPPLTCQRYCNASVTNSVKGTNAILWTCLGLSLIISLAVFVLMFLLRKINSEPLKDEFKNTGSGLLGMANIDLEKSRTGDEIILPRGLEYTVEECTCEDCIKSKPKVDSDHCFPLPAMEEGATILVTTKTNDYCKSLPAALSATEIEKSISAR

**Q.** Does B1 bind?
**A.** binds

The binders below were run against T1, human BCMA (B-cell maturation antigen, …) (assay: cell binding, NCI-H929 cells expressing BCMA, 3-pt assay).
Description: The six humanized heavy chains and four humanized light chains were tested in all 24 possible permutations for binding to BCMA expressed on NCI-H929 cells, which express about 50,000 molecules of BCMA per cell.

**Q.** Does B2 bind?
**A.** binds

**Q.** Does B3 bind?
**A.** binds

**Q.** Does B4 bind?
**A.** binds

**Q.** Does B5 bind?
**A.** binds

**Q.** Does B6 bind?
**A.** binds

**Q.** Does B7 bind?
**A.** binds

**Q.** Does B8 bind?
**A.** binds

**Q.** Does B9 bind?
**A.** binds

**Q.** Does B10 bind?
**A.** binds

**Q.** Does B11 bind?
**A.** binds

**Q.** Does B12 bind?
**A.** binds

**Q.** Does B13 bind?
**A.** binds

**Q.** Does B14 bind?
**A.** binds

**Q.** Does B15 bind?
**A.** binds
